Data published in publication PMC6477152 (2019).

B1: FIP200ΔN1115:Luciferase [human] / GST:NAP1aa5–75 [human] (parent complex)
chain 1: ENYQVGLAELRTLMTIEKDQCISELISRHEEESNILKAELNKVTSLHNQAFEIEKNLKEQIIELQSKLDSELSALERQKDEKITQQEEKYEAIIQNLEKDRQKLVSSQEQDREQLIQKLNCEKDEAIQTALKEFKLEREVVEKELLEKVKHLENQIAKSPAIDSTRGDSSSLVAELQEKLQEEKAKFLEQLEEQEKRKNEEMQNVRTSLIAEQQTNFNTVLTREKMRKENIINDLSDKLKSTMQQQERDKDLIESLSEDRARLLEEKKKLEEEVSKLRSSSFVPSPYVATAPELYGACAPELPGESDRSAVETADEGRVDSAMETSMMSVQENIHMLSEEKQRIMLLERTLQLKEEENKRLNQRLMSQSMSSVSSRHSEKIAIRDFQVGDLVLIILDERHDNYVLFTVSPTLYFLHSESLPALDLKPGEGASGASRRPWVLGKVMEKEYCQAKKAQNRFKVPLGTKFYRVKAVSWNKKV
chain 2: VEDDICILNHEKAHKRDTVTPVSIYSGDESVASHFALVTAYEDIKKRLKDSEKENSLLKKRIRFLEEKLIA
B2: FIP200ΔN1115:Luciferase [human] / GST:NDP52 [human] (parent complex)
chain 1: B1 chain 1
chain 2: MEETIKDPPTSAVLLDHCHFSQVIFNSVEKFYIPGGDVTCHYTFTQHFIPRRKDWIGIFRVGWKTTREYYTFMWVTLPIDLNNKSAKQQEVQFKAYYLPKDDEYYQFCYVDEDGVVRGASIPFQFRPENEEDILVVTTQGEVEEIEQHNKELCKENQELKDSCISLQKQNSDMQAELQKKQEELETLQSINKKLELKVKEQKDYWETELLQLKEQNQKMSSENEKMGIRVDQLQAQLSTQEKEMEKLVQGDQDKTEQLEQLKKENDHLFLSLTEQRKDQKKLEQTVEQMKQNETTAMKKQQELMDENFDLSKRLSENEIICNALQRQKERLEGENDLLKRENSRLLSYMGLDFNSLPYQVPTSDEGGARQNPGLAYGNPYSGIQESSSPSPLSIKKCPICKADDICDHTLEQQQMQPLCFNCPICDKIFPATEKQIFEDHVFCHSL

Variants of: B1
Assay: LUMIER assay; HEK293ET cell lysates; read off a plot

Going from chain 1 ENYQVGLAELRTLMTIEKDQCISELISRHEEESNILKAELNKVTSLHNQAFEIEKNLKEQIIELQSKLDSELSALERQKDEKITQQEEKYEAIIQNLEKDRQKLVSSQEQDREQLIQKLNCEKDEAIQTALKEFKLEREVVEKELLEKVKHLENQIAKSPAIDSTRGDSSSLVAELQEKLQEEKAKFLEQLEEQEKRKNEEMQNVRTSLIAEQQTNFNTVLTREKMRKENIINDLSDKLKSTMQQQERDKDLIESLSEDRARLLEEKKKLEEEVSKLRSSSFVPSPYVATAPELYGACAPELPGESDRSAVETADEGRVDSAMETSMMSVQENIHMLSEEKQRIMLLERTLQLKEEENKRLNQRLMSQSMSSVSSRHSEKIAIRDFQVGDLVLIILDERHDNYVLFTVSPTLYFLHSESLPALDLKPGEGASGASRRPWVLGKVMEKEYCQAKKAQNRSKVPLGTKFYRVKAVSWNKKV [chain 1 F459S] to chain 1 ENYQVGLAELRTLMTIEKDQCISELISRHEEESNILKAELNKVTSLHNQAFEIEKNLKEQIIELQSKLDSELSALERQKDEKITQQEEKYEAIIQNLEKDRQKLVSSQEQDREQLIQKLNCEKDEAIQTALKEFKLEREVVEKELLEKVKHLENQIAKSPAIDSTRGDSSSLVAELQEKLQEEKAKFLEQLEEQEKRKNEEMQNVRTSLIAEQQTNFNTVLTREKMRKENIINDLSDKLKSTMQQQERDKDLIESLSEDRARLLEEKKKLEEEVSKLRSSSFVPSPYVATAPELYGACAPELPGESDRSAVETADEGRVDSAMETSMMSVQENIHMLSEEKQRIMLLERTLQLKEEENKRLNQRLMSQSMSSVSSRHSEKIAIRDFQVGDLVLIILDERHDNYVLFTVSPTLYFLHSESLPALDLKPGEGASGASRRPWVLGKVMEKEYCQSKKAQNRFKVPLGTKFYRVKAVSWNKKV [chain 1 A452S], the response rises from about 1.4 fold binding to about 12 fold binding.

Going from chain 1 ENYQVGLAELRTLMTIEKDQCISELISRHEEESNILKAELNKVTSLHNQAFEIEKNLKEQIIELQSKLDSELSALERQKDEKITQQEEKYEAIIQNLEKDRQKLVSSQEQDREQLIQKLNCEKDEAIQTALKEFKLEREVVEKELLEKVKHLENQIAKSPAIDSTRGDSSSLVAELQEKLQEEKAKFLEQLEEQEKRKNEEMQNVRTSLIAEQQTNFNTVLTREKMRKENIINDLSDKLKSTMQQQERDKDLIESLSEDRARLLEEKKKLEEEVSKLRSSSFVPSPYVATAPELYGACAPELPGESDRSAVETADEGRVDSAMETSMMSVQENIHMLSEEKQRIMLLERTLQLKEEENKRLNQRLMSQSMSSVSSRHSEKIAIRDFQVGDLVLIILDERHDNYVLFTVSPTLYFLHSESLPALDLKPGEGASGASRRPWVLGKVMEKEYCQAKKAQSRFKVPLGTKFYRVKAVSWNKKV [chain 1 N457S] to chain 1 ENYQVGLAELRTLMTIEKDQCISELISRHEEESNILKAELNKVTSLHNQAFEIEKNLKEQIIELQSKLDSELSALERQKDEKITQQEEKYEAIIQNLEKDRQKLVSSQEQDREQLIQKLNCEKDEAIQTALKEFKLEREVVEKELLEKVKHLENQIAKSPAIDSTRGDSSSLVAELQEKLQEEKAKFLEQLEEQEKRKNEEMQNVRTSLIAEQQTNFNTVLTREKMRKENIINDLSDKLKSTMQQQERDKDLIESLSEDRARLLEEKKKLEEEVSKLRSSSFVPSPYVATAPELYGACAPELPGESDRSAVETADEGRVDSAMETSMMSVQENIHMLSEEKQRIMLLERTLQLKEEENKRLNQRLMSQSMSSVSSRHSEKIAIRDFQVGDLVLIILDERHDNYVLFTVSPTLYFLHSESLPALDLKPGEGASGASRRPWVLGKVMEKEYCQAKKAQNRFKSPLGTKFYRVKAVSWNKKV [chain 1 V461S], the response rises from about 1.4 fold binding to about 1.7 fold binding.

Variants of: B2
Assay: LUMIER assay; HEK293ET cell lysates; bacterially expressed GST bait; read off a plot

First: chain 1 ENYQVGLAELRTLMTIEKDQCISELISRHEEESNILKAELNKVTSLHNQAFEIEKNLKEQIIELQSKLDSELSALERQKDEKITQQEEKYEAIIQNLEKDRQKLVSSQEQDREQLIQKLNCEKDEAIQTALKEFKLEREVVEKELLEKVKHLENQIAKSPAIDSTRGDSSSLVAELQEKLQEEKAKFLEQLEEQEKRKNEEMQNVRTSLIAEQQTNFNTVLTREKMRKENIINDLSDKLKSTMQQQERDKDLIESLSEDRARLLEEKKKLEEEVSKLRSSSFVPSPYVATAPELYGACAPELPGESDRSAVETADEGRVDSAMETSMMSVQENIHMLSEEKQRIMLLERTLQLKEEENKRLNQRLMSQSMSSVSSRHSEKIAIRDFQVGDLVLIILDERHDNYVLFTVSPTLYFLHSESLPALDLKPGEGASGASRRPWVLGKVMEKEYCQSKKAQNRFKVPLGTKFYRVKAVSWNKKV [chain 1 A452S]
Second: chain 1 ENYQVGLAELRTLMTIEKDQCISELISRHEEESNILKAELNKVTSLHNQAFEIEKNLKEQIIELQSKLDSELSALERQKDEKITQQEEKYEAIIQNLEKDRQKLVSSQEQDREQLIQKLNCEKDEAIQTALKEFKLEREVVEKELLEKVKHLENQIAKSPAIDSTRGDSSSLVAELQEKLQEEKAKFLEQLEEQEKRKNEEMQNVRTSLIAEQQTNFNTVLTREKMRKENIINDLSDKLKSTMQQQERDKDLIESLSEDRARLLEEKKKLEEEVSKLRSSSFVPSPYVATAPELYGACAPELPGESDRSAVETADEGRVDSAMETSMMSVQENIHMLSEEKQRIMLLERTLQAKEEENKRLNQRLMSQSMSSVSSRHSEKIAIRDFQVGDLVLIILDERHDNYVLFTVSPTLYFLHSESLPALDLKPGEGASGASRRPWVLGKVMEKEYCQAKKAQNRFKVPLGTKFYRVKAVSWNKKV [chain 1 L353A]
The response of the first is lower: about 22 fold binding for the first, about 32 fold binding for the second.

Compared with chain 1 ENYQVGLAELRTLMTIEKDQCISELISRHEEESNILKAELNKVTSLHNQAFEIEKNLKEQIIELQSKLDSELSALERQKDEKITQQEEKYEAIIQNLEKDRQKLVSSQEQDREQLIQKLNCEKDEAIQTALKEFKLEREVVEKELLEKVKHLENQIAKSPAIDSTRGDSSSLVAELQEKLQEEKAKFLEQLEEQEKRKNEEMQNVRTSLIAEQQTNFNTVLTREKMRKENIINDLSDKLKSTMQQQERDKDLIESLSEDRARLLEEKKKLEEEVSKLRSSSFVPSPYVATAPELYGACAPELPGESDRSAVETADEGRVDSAMETSMMSVQENIHMLSEEKQRIMLLERTLQLKEEENKRLNQRLMSQSMSSVSSRHSEKIAIRDFQVGDLVLIILDERHDNYVLFTVSPTLYFLHSESLPALDLKPGEGASGASRRPWVLGKVMEKEYCQAKKAQNRSKVPLGTKFYRVKAVSWNKKV [chain 1 F459S], chain 1 ENYQVGLAELRTLMTIEKDQCISELISRHEEESNILKAELNKVTSLHNQAFEIEKNLKEQIIELQSKLDSELSALERQKDEKITQQEEKYEAIIQNLEKDRQKLVSSQEQDREQLIQKLNCEKDEAIQTALKEFKLEREVVEKELLEKVKHLENQIAKSPAIDSTRGDSSSLVAELQEKLQEEKAKFLEQLEEQEKRKNEEMQNVRTSLIAEQQTNFNTVLTREKMRKENIINDLSDKLKSTMQQQERDKDLIESLSEDRARLLEEKKKLEEEVSKLRSSSFVPSPYVATAPELYGACAPELPGESDRSAVETADEGRVDSAMETSMMSVQENIHMLSEEKQRIMLLERTAQLKEEENKRLNQRLMSQSMSSVSSRHSEKIAIRDFQVGDLVLIILDERHDNYVLFTVSPTLYFLHSESLPALDLKPGEGASGASRRPWVLGKVMEKEYCQAKKAQNRFKVPLGTKFYRVKAVSWNKKV [chain 1 L351A] is lower in response: about 52 fold binding for the first, about 38 fold binding for the second.

First: chain 1 ENYQVGLAELRTLMTIEKDQCISELISRHEEESNILKAELNKVTSLHNQAFEIEKNLKEQIIELQSKLDSELSALERQKDEKITQQEEKYEAIIQNLEKDRQKLVSSQEQDREQLIQKLNCEKDEAIQTALKEFKLEREVVEKELLEKVKHLENQIAKSPAIDSTRGDSSSLVAELQEKLQEEKAKFLEQLEEQEKRKNEEMQNVRTSLIAEQQTNFNTVLTREKMRKENIINDLSDKLKSTMQQQERDKDLIESLSEDRARLLEEKKKLEEEVSKLRSSSFVPSPYVATAPELYGACAPELPGESDRSAVETADEGRVDSAMETSMMSVQENIHMLSEEKQRIMLLERTLQLKEEENKRLNQRLMSQSMSSVSSRHSEKIAIRDFQVGDLVLIILDERHDNYVLFTVSPTLYFLHSESLPALDLKPGEGASGASRRPWVLGKVMEKEYCQAKKAQSRFKVPLGTKFYRVKAVSWNKKV [chain 1 N457S]
Second: chain 1 ENYQVGLAELRTLMTIEKDQCISELISRHEEESNILKAELNKVTSLHNQAFEIEKNLKEQIIELQSKLDSELSALERQKDEKITQQEEKYEAIIQNLEKDRQKLVSSQEQDREQLIQKLNCEKDEAIQTALKEFKLEREVVEKELLEKVKHLENQIAKSPAIDSTRGDSSSLVAELQEKLQEEKAKFLEQLEEQEKRKNEEMQNVRTSLIAEQQTNFNTVLTREKMRKENIINDLSDKLKSTMQQQERDKDLIESLSEDRARLLEEKKKLEEEVSKLRSSSFVPSPYVATAPELYGACAPELPGESDRSAVETADEGRVDSAMETSMMSVQENIHMLSEEKQRIMLLERTLQLKEEENKRLNQRLMSQSMSSVSSRHSEKIAIRDFQVGDLVLIILDERHDNYVLFTVSPTLYFLHSESLPALDLKPGEGASGASRRPWVLGKVMEKEYCQAKKAQNRFKSPLGTKFYRVKAVSWNKKV [chain 1 V461S]
The response of the first is lower: about 15 fold binding for the first, about 50 fold binding for the second.

Going from chain 1 ENYQVGLAELRTLMTIEKDQCISELISRHEEESNILKAELNKVTSLHNQAFEIEKNLKEQIIELQSKLDSELSALERQKDEKITQQEEKYEAIIQNLEKDRQKLVSSQEQDREQLIQKLNCEKDEAIQTALKEFKLEREVVEKELLEKVKHLENQIAKSPAIDSTRGDSSSLVAELQEKLQEEKAKFLEQLEEQEKRKNEEMQNVRTSLIAEQQTNFNTVLTREKMRKENIINDLSDKLKSTMQQQERDKDLIESLSEDRARLLEEKKKLEEEVSKLRSSSFVPSPYVATAPELYGACAPELPGESDRSAVETADEGRVDSAMETSMMSVQENIHMLSEEKQRIMLLARTLQLKEEENKRLNQRLMSQSMSSVSSRHSEKIAIRDFQVGDLVLIILDERHDNYVLFTVSPTLYFLHSESLPALDLKPGEGASGASRRPWVLGKVMEKEYCQAKKAQNRFKVPLGTKFYRVKAVSWNKKV [chain 1 E348A] to chain 1 ENYQVGLAELRTLMTIEKDQCISELISRHEEESNILKAELNKVTSLHNQAFEIEKNLKEQIIELQSKLDSELSALERQKDEKITQQEEKYEAIIQNLEKDRQKLVSSQEQDREQLIQKLNCEKDEAIQTALKEFKLEREVVEKELLEKVKHLENQIAKSPAIDSTRGDSSSLVAELQEKLQEEKAKFLEQLEEQEKRKNEEMQNVRTSLIAEQQTNFNTVLTREKMRKENIINDLSDKLKSTMQQQERDKDLIESLSEDRARLLEEKKKLEEEVSKLRSSSFVPSPYVATAPELYGACAPELPGESDRSAVETADEGRVDSAMETSMMSVQENIHMLSEEKQRIMLLEATLQLKEEENKRLNQRLMSQSMSSVSSRHSEKIAIRDFQVGDLVLIILDERHDNYVLFTVSPTLYFLHSESLPALDLKPGEGASGASRRPWVLGKVMEKEYCQAKKAQNRFKVPLGTKFYRVKAVSWNKKV [chain 1 R349A], the response falls from about 49 fold binding to about 33 fold binding.
